The supplement of paper PMC7125110
± gives the standard error. For part of these data: This sample holds only a part of the variants without activity.

B1: glmS ribozyme (parent)
chain: AUAAAAGCGCCAGAACUACAGAAAUGUAGUUGACGAGGAGGAGGUUUAUCGAAUUUUCGGCGGAUGCCUCCAAA

Tests used:
Details in all cases: with glucosamine-6-phosphate
[1] = variants of: B1; assay: kcat; higher = faster cleavage; RNA array
Method in brief: (§1)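 Glucosamine-6-phosphate, from 40 μM to 10 mM in HEPES/KCl/Mg(OAc)2 buffer, was flowed over sequenced MiSeq chips carrying barcoded ribozyme variants transcribed in situ by E. coli RNA polymerase. A hybridised Cy3 probe tracked the variants at 37 °C as tiles were imaged over ~14 h. kobs, kcat and KM were obtained by fitting normalised per-tile medians to exponential decays and then applying weighted Michaelis–Menten fits across concentrations.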

[2] = variants of: B1; assay: self-cleavage kobs at 2500 uM GlcN6P; higher = faster cleavage; RNA array
Method in brief: as §1

[3] = variants of: B1; assay: self-cleavage kobs at 40 uM GlcN6P; higher = faster cleavage; RNA array
Method in brief: as §1

[4] = variants of: B1; assay: KM; higher = weaker cofactor use; RNA array
Method in brief: as §1

[5] = variants of: B1; assay: self-cleavage kobs at 160 uM GlcN6P; higher = faster cleavage; RNA array
Method in brief: as §1

[6] = variants of: B1; assay: self-cleavage kobs at 10000 uM GlcN6P; higher = faster cleavage; RNA array
Method in brief: as §1

[7] = variants of: B1; assay: self-cleavage kobs at 640 uM GlcN6P; higher = faster cleavage; RNA array
Method in brief: as §1

Variant | kcat [1] | self-cleavage kobs at 2500 uM GlcN6P [2] | self-cleavage kobs at 40 uM GlcN6P [3] | KM [4] | self-cleavage kobs at 160 uM GlcN6P [5] | self-cleavage kobs at 10000 uM GlcN6P [6] | self-cleavage kobs at 640 uM GlcN6P [7]
G13U A53G C68G | 4.16e-05 ± 3.1e-06 s⁻¹ | 4.16e-05 ± 1.5e-05 s⁻¹ |  |  |  |  | 
C8G C11A C50G |  |  | 0.000193 ± 4.9e-05 s⁻¹ |  |  |  | 
U46G C58G | 2.68e-05 ± 1.4e-06 s⁻¹ |  |  | 892 ± 260 µM | < 1e-05 s⁻¹ | 2.44e-05 ± 1.2e-05 s⁻¹ | 
U65C C71A | 0.000104 ± 5.5e-06 s⁻¹ | 8.23e-05 ± 2e-05 s⁻¹ |  | 481 ± 140 µM |  | 0.000102 ± 2.3e-05 s⁻¹ | 6.26e-05 ± 2.5e-05 s⁻¹
G13C U47C |  |  | < 1e-05 s⁻¹ |  | < 1e-05 s⁻¹ |  | 
A52G U55C | 0.00205 ± 0.00032 s⁻¹ | 0.000739 ± 9.4e-05 s⁻¹ | 3.24e-05 ± 8.4e-06 s⁻¹ | 3680 ± 850 µM | 8.26e-05 ± 1.2e-05 s⁻¹ | 0.00158 ± 0.00017 s⁻¹ | 0.000325 ± 5e-05 s⁻¹
U45G U46G C61A |  |  | < 1e-05 s⁻¹ |  |  | < 1e-05 s⁻¹ | 
A53C U65A C70A C71A | 1.25e-05 ± 4e-06 s⁻¹ |  |  |  |  |  | 
G41C U69C |  |  |  | 84.1 ± 23 µM |  |  | 
G9C G29C C67U |  |  | < 1e-05 s⁻¹ |  |  | < 1e-05 s⁻¹ | < 1e-05 s⁻¹
G29C U30G | 0.00361 ± 0.0014 s⁻¹ | 0.00147 ± 0.00036 s⁻¹ | 8.92e-05 ± 1.8e-05 s⁻¹ |  | 0.000309 ± 6.9e-05 s⁻¹ | 0.00472 ± 0.00086 s⁻¹ | 0.00138 ± 0.00041 s⁻¹
A6U C8G A36G U45A A64U |  |  | < 1e-05 s⁻¹ |  |  |  | < 1e-05 s⁻¹
G9A A15G U30C |  |  | < 1e-05 s⁻¹ |  |  |  | 
A12C A52U | 0.000397 ± 5.1e-05 s⁻¹ | 0.000188 ± 1.7e-05 s⁻¹ |  | 2490 ± 570 µM |  | 0.000329 ± 3.4e-05 s⁻¹ | 8.66e-05 ± 8.4e-06 s⁻¹
A39C U45C | 0.000523 ± 3.8e-05 s⁻¹ | 0.000214 ± 3.8e-05 s⁻¹ |  | 3080 ± 440 µM |  | 0.000408 ± 4.5e-05 s⁻¹ | 9.68e-05 ± 1.7e-05 s⁻¹
A12U U54G | 0.0434 ± 0.021 s⁻¹ | 0.0405 ± 0.019 s⁻¹ | 0.00183 ± 0.00035 s⁻¹ |  | 0.00452 ± 0.00078 s⁻¹ | 0.0363 ± 0.0092 s⁻¹ | 0.0495 ± 0.012 s⁻¹
G37U U69A |  |  | < 1e-05 s⁻¹ |  |  | < 1e-05 s⁻¹ | 
G29C U65G C67U |  |  | < 1e-05 s⁻¹ |  |  | 0.000105 ± 3e-05 s⁻¹ | 
A39G C50A G51U C71G | 1.15e-05 ± 3.2e-06 s⁻¹ |  |  |  |  |  | 
A6C C8G G51A C71U |  |  | < 1e-05 s⁻¹ |  |  | < 1e-05 s⁻¹ | 
U57G U65A |  |  | < 1e-05 s⁻¹ |  |  |  | < 1e-05 s⁻¹
G7C U49G |  |  | < 1e-05 s⁻¹ |  | < 1e-05 s⁻¹ |  | 
C10G A53C A64G |  | < 1e-05 s⁻¹ | < 1e-05 s⁻¹ |  | < 1e-05 s⁻¹ | < 1e-05 s⁻¹ | < 1e-05 s⁻¹
